Legend:
[1] = immunoblot of HEK293 lysate; conditions: glycan lost
[2] = surface biotinylation, amount of DUOX2 at cell surface; conditions: glycan lost; control: wild type DUOXA2
[3] = domain-selective surface biotinylation, apical vs basolateral; conditions: glycan lost
[4] = confocal microscopy, polarized MDCK; conditions: glycan lost
[5] = surface biotinylation, amount of DUOX1 at cell surface; conditions: glycan lost; control: wild type DUOXA1

Row | Protein | expression_or_secretion ([1]; control: wild type DUOXA2) | localisation_or_trafficking [2] | localisation_or_trafficking ([3]; control: wild type DUOXA2) | localisation_or_trafficking ([4]; control: wild type DUOXA2) | expression_or_secretion ([1]; control: wild type DUOXA1) | localisation_or_trafficking [5] | localisation_or_trafficking ([3]; control: wild type DUOXA1) | localisation_or_trafficking ([4]; control: wild type DUOXA1)
1 | DUOXA2: N84Q/N109Q/N121Q (protein) parent chain: MTLWNGVLPFYPQPRHAAGFSVPLLIVILVFLALAASFLLILPGIRGHSRWFWLVRVLLSLFIGAEIVAVHFSAEWFVGTVNTNTSYKAFSAARVTARVRLLVGLEGINITLTGTPVHQLNETIDYNEQFTWRLKENYAAEYANALEKGLPDPVLYLAEKFTPSSPCGLYHQYHLAGHYASATLWVAFCFWLLSNVLLSTPAPLYGGLALLTTGAFALFGVFALASISSVPLCPLRLGSSALTTQYGAAFWVTLATGVLCLFLGGAVVSLQYVRPSALRTLLDQSAKDCSQERGGSPLILGDPLHKQAALPDLKCITTNL | decreases | decreases | no change | no change | – | – | – | –
2 | DUOXA1: N84Q/N109Q/N121Q (protein) parent chain: MATLGHTFPFYAGPKPTFPMDTTLASIIMIFLTALATFIVILPGIRGKTRLFWLLRVVTSLFIGAAILAVNFSSEWSVGQVSTNTSYKAFSSEWISADIGLQVGLGGVNITLTGTPVQQLNETINYNEEFTWRLGENYAEEYAKALEKGLPDPVLYLAEKFTPRSPCGLYRQYRLAGHYTSAMLWVAFLCWLLANVMLSMPVLVYGGYMLLATGIFQLLALLFFSMATSLTSPCPLHLGASVLHTHHGPAFWITLTTGLLCVLLGLAMAVAHRMQPHRLKAFFNQSVDEDPMLEWSPEEGGLLSPRYRSMADSPKSQDIPLSEASSTKAYCKEAHPKDPDCAL | – | – | – | – | no change | decreases | changes | changes

Reference: publication PMC11555622
